The target of this experiment is beta-amyloid (Aβ) peptide. The experiment in a line: ITC; isothermal titration calorimetry of HAEEPGP with Aβ peptides; also with zinc ions, which enhanced the interaction; which peptide was titrated, buffer and temperature not told. The conditions noted are these: both partners purified. A general note: In ITC the heat of successive injections is recorded.

As a reminder, the Kd is the free concentration of one partner at which half of the binding sites on the other are occupied at equilibrium, for simple one-to-one binding.

B1: HAEEPGP peptide (peptide)
peptide: HAEEPGP
notes: HAEE tetrapeptide with PGP amino acids added to its C-terminus to stabilize the peptide; The 125I label was used for pharmacokinetics only, not for the calorimetry
In the case of B1, the Kd came out at 1.64 µM.

Values taken from article PMC12726774, “HAEEPGP Peptide Efficiently Prevents Alzheimer's Disease Pathology in Vivo” (Alzheimer's & Dementia, 2025).
